The record followed here is paper doi:10.1101/2023.11.29.569220, “Spartin-mediated lipid transfer facilitates lipid droplet turnover” (bioRxiv, 2023).

What all share (assay): native gel or EMSA; blue native PAGE, 4%-16% Bis-Tris gel, 4C, 1-2 ug protein purified in buffer A (50 mM HEPES, 500 mM NaCl, pH 8.0, 1 mM TCEP, 10% glycerol); migration according to MW against NativeMark standards
In general terms: In EMSA bound probe runs differently from free probe, usually more slowly.

In series [1] the target is CtSpartinL (spartin-like protein from Chaetomium thermophilum) (Chaetomium thermophilum).
The target in series [2] is CeSpartin (C. elegans spartin) (C. elegans).
Series [3] concerns the molecule itself.

Molecule “CtSpartinL (spartin-like protein from Chaetomium thermophilum) (natural protein)” registered a stoichiometry N in series [1] of 3.
For “CeSpartin (C. elegans spartin) (natural protein)”, in series [2], the stoichiometry N amounted to 3.

B1: HsSpartin (human spartin, SPG20) (natural protein, UniProt Q8N0X7 1-666, looked up)
chain: MEQEPQNGEPAEIKIIREAYKKAFLFVNKGLNTDELGQKEEAKNYYKQGIGHLLRGISISSKESEHTGPGWESARQMQQKMKETLQNVRTRLEILEKGLATSLQNDLQEVPKLYPEFPPKDMCEKLPEPQSFSSAPQHAEVNGNTSTPSAGAVAAPASLSLPSQSCPAEAPPAYTPQAAEGHYTVSYGTDSGEFSSVGEEFYRNHSQPPPLETLGLDADELILIPNGVQIFFVNPAGEVSAPSYPGYLRIVRFLDNSLDTVLNRPPGFLQVCDWLYPLVPDRSPVLKCTAGAYMFPDTMLQAAGCFVGVVLSSELPEDDRELFEDLLRQMSDLRLQANWNRAEEENEFQIPGRTRPSSDQLKEASGTDVKQLDQGNKDVRHKGKRGKRAKDTSSEEVNLSHIVPCEPVPEEKPKELPEWSEKVAHNILSGASWVSWGLVKGAEITGKAIQKGASKLRERIQPEEKPVEVSPAVTKGLYIAKQATGGAAKVSQFLVDGVCTVANCVGKELAPHVKKHGSKLVPESLKKDKDGKSPLDGAMVVAASSVQGFSTVWQGLECAAKCIVNNVSAETVQTVRYKYGYNAGEATHHAVDSAVNVGVTAYNINNIGIKAMVKKTATQTGHTLLEDYQIVDNSQRENQEGAANVNVRGEKDEQTKEVKEAKKKDK
notes: Spartin (SPG20), human, Uniprot Q8N0X7, full-length; gene synthesized and cloned into pCMV10 with an N-terminal 3xFLAG tag; The Expi293 methods describe only elution with 3xFLAG peptide and no protease step; source: Expi293 cells, purified (anti-FLAG resin); not shown: 3xFLAG, N-terminal, cleaved
As to B1, in series [3], the “stoichiometry N” value is ~3.

For orientation: stoichiometry N means a count of units in the complex or per binding partner.
